Measurements as given in patent publication US10206886B2, “Lipid nanoparticles for wound healing” (Praxis Biopharma Research Institute, priority 2013, dated 2019).

Tests used:
[1] = tested on: Balb/C 3T3 fibroblast; experiment: Proliferation assay with rhEGF-loaded nanoparticles (CCK-8); format: cell-based; settings: 15 ng/ml rhEGF, after 48 hours and 72 hours, FIG. 1
Description: 24-well plate was used for the proliferation assay. 35000 Balb/C 3T3 fibroblast resuspended in 1 ml of completed culture medium (DMEM supplemented with 10% FCS) were seeded in each well. After 8 hours of incubation, the medium was replaced by 1 ml of 0.2% FCS supplemented DMEM and cells were incubated overnight. Then, medium was replaced by 1 ml of: (i) 0.2% FCS-supplemented DMEM, (ii) 15 ng/ml of free rhEGF in 0.2% FCS-supplemented DMEM, (iii) empty SLN in 0.2% FCS-supplemented DMEM, (iv) 15 ng/ml of rhEGF-loaded SLN (rhEGF-SLN) in 0.2% FCS-supplemented DMEM, (v) empty NLC in 0.2% FCS-supplemented DMEM and (vi) 15 ng/ml of rhEGF-loaded NLC (rhEGF-NLC) in 0.2% FCS-supplemented DMEM.
The cells were cultured under the same conditions for 24 hours, 48 hours and 72 hours. The experiments were performed in triplicate. After the different incubation intervals, 100 μl of CCK-8 (Sigma-Aldrich, Saint Louise, USA) was added to each well (Zhou, Y., Qian, M., Liang, Y., Liu, Y., Yang, X., Jiang, T., Wang, Y., 2011. Effects of Leukemia Inhibitory Factor on Proliferation and Odontoblastic Differentiation of Human Dental Pulp Cells. J. Endod. 37, 819-824). After 4 hours of incubation, absorbance was read at 450 nm and at 650 nm as the reference wavelength. The absorbance was directly proportional to the number of living cells in culture.

[2] = tested on: db/db mice; experiment: Histological estimation of wound healing: re-epithelization score (Sinha criteria 0-4); format: in vivo; settings: 75 μg rhEGF intralesionally (free rhEGF twice a week; rhEGF-MS once), scale 0-4
[3] = tested on: db/db mice; experiment: In vivo wound healing, wound closure (wound area); settings: 75 μg rhEGF intralesionally (free rhEGF twice a week; rhEGF-MS once)
[4] = tested on: db/db mice; experiment: Histological estimation of wound healing: inflammation score (Cotran scale 0-4); format: in vivo; settings: 75 μg rhEGF intralesionally (free rhEGF twice a week; rhEGF-MS once)
[5] = tested on: Large White pigs; experiment: In vivo wound healing in pigs, serial analysis of healed wounds (closure above 95%); settings: rhEGF-NLC 20 μg topically, free rhEGF 75 μg intralesionally, twice a week
Excerpt: All the protocols and procedures used were previously approved by the Institutional Animal Care and Use Committee from the Jesús Usón Minimally Invasive Surgery Centre (JUMISC). Six female Large White pigs, with a mean weight of 26.82±2.90 kg at the beginning of the study, distributed in individual pens of 2.90 m×1.35 m were used. All the animals of the study were randomly distributed in acclimated rooms, where the following housing conditions were established: 12-hour light-dark cycle, temperature between 20 and 25° C., eight air changes per hour with HEPA-filtered ventilation and relative humidity between 50 and 70%. As pen environmental enrichment, hanging chains and chewing rubber toys were installed as chewable elements. After an acclimatization period, the animals were identified by ear tag codes to be included in the study. […]
Wound healing kinetic was determined by measuring the wound closure (percentage of initial wound area closed) on days 1, 15, 25, 36 and 43. The wound area was assessed, in a standardized manner, taken photographs perpendicularly to the wound surface, using the same illumination and placing a transparent plastic sterile ruler next to the wounds to introduce a metric reference in the pictures for further processing. The wound area was calculated using the image software ImageJ (see section 5.3). […]

[6] = tested on: Large White pigs; experiment: Histological assessment in pigs: wound maturity and healing quality (Cotran criteria); format: in vivo; settings: rhEGF-NLC 20 μg topically, free rhEGF 75 μg intralesionally
Description: (§1) Treatment administration began 24 hours after wound induction (day 1 of the study) to allow primary homeostasis, platelet adhesion and aggregation, and activation of the coagulation cascade. The animals were randomly divided into three groups (n=2): (i) empty NLC, (ii) 20 μg rhEGF-NLC and (iii) 75 μg free rhEGF. Nanoparticles previously resuspended in 150 μl of vehicle (0.5% carboxymethylcellulose in 0.9% saline) were topically administered twice a week by spreading them over the wound bed. Free rhEGF, resuspended in 1 ml of vehicle, was intralesionally administered twice a week.
Complete skin thickness biopsies from the centre of the unhealed wound to the healthy margin (2 mm) were collected using a sterile scalpel. Collected samples were immediately fixed in 4% formalin, embedded in paraffin and excised in 5-μm thick layers. Samples were stained with haematoxilyn-eosin (HE) for morphological observations. Biopsies were collected on day 15 for wounds 1, 2 and 3 and on days 25 and 43 for all of the wounds. On day 36, wound images were taken but no biopsies were collected not to delay wound healing.
Wound healing was determined in terms of the re-epithelization grade by measuring the newly formed epithelia, and wound maturity and healing quality according to the Cotran et al. (2000) criteria.

[7] = rhEGF plasma concentration (systemic absorption), ELISA; format: in vivo, pigs; settings: 30 minutes after first dose; free rhEGF 75 μg intralesionally
Description: as §1
In addition, plasma samples from the rhEGF-NLC and free rhEGF treated animals were collected to assess rhEGF systemic absorption. rhEGF detection was performed by ELISA (human EGF ELISA development kit, PeproTech). Samples were drawn when the plasma rhEGF levels were expected to be higher. Thus, samples from the animals treated with rhEGF-NLC were collected on day 1 of the experiment (prior to the treatment administration), 4 hours and 24 hours after administration. Plasma samples from the animals treated with free rhEGF were obtained just after administration and 30 minutes after the first dose. […]

B1: free rhEGF: Non-encapsulated recombinant human epidermal growth factor; 75 μg of lyophilised rhEGF similar to commercialised Heberprot (protein, UniProt P01133 23-1207, looked up)
Pro-epidermal growth factor: PQHWSCPEGTLAGNGNSTCVGPAPFLIFSHGNSIFRIDTEGTNYEQLVVDAGVSVIMDFHYNEKRIYWVDLERQLLQRVFLNGSRQERVCNIEKNVSGMAINWINEEVIWSNQQEGIITVTDMKGNNSHILLSALKYPANVAVDPVERFIFWSSEVAGSLYRADLDGVGVKALLETSEKITAVSLDVLDKRLFWIQYNREGSNSLICSCDYDGGSVHISKHPTQHNLFAMSLFGDRIFYSTWKMKTIWIANKHTGKDMVRINLHSSFVPLGELKVVHPLAQPKAEDDTWEPEQKLCKLRKGNCSSTVCGQDLQSHLCMCAEGYALSRDRKYCEDVNECAFWNHGCTLGCKNTPGSYYCTCPVGFVLLPDGKRCHQLVSCPRNVSECSHDCVLTSEGPLCFCPEGSVLERDGKTCSGCSSPDNGGCSQLCVPLSPVSWECDCFPGYDLQLDEKSCAASGPQPFLLFANSQDIRHMHFDGTDYGTLLSQQMGMVYALDHDPVENKIYFAHTALKWIERANMDGSQRERLIEEGVDVPEGLAVDWIGRRFYWTDRGKSLIGRSDLNGKRSKIITKENISQPRGIAVHPMAKRLFWTDTGINPRIESSSLQGLGRLVIASSDLIWPSGITIDFLTDKLYWCDAKQSVIEMANLDGSKRRRLTQNDVGHPFAVAVFEDYVWFSDWAMPSVMRVNKRTGKDRVRLQGSMLKPSSLVVVHPLAKPGADPCLYQNGGCEHICKKRLGTAWCSCREGFMKASDGKTCLALDGHQLLAGGEVDLKNQVTPLDILSKTRVSEDNITESQHMLVAEIMVSDQDDCAPVGCSMYARCISEGEDATCQCLKGFAGDGKLCSDIDECEMGVPVCPPASSKCINTEGGYVCRCSEGYQGDGIHCLDIDECQLGEHSCGENASCTNTEGGYTCMCAGRLSEPGLICPDSTPPPHLREDDHHYSVRNSDSECPLSHDGYCLHDGVCMYIEALDKYACNCVVGYIGERCQYRDLKWWELRHAGHGQQQKVIVVAVCVVVLVMLLLLSLWGAHYYRTQKLLSKNPKNPYEESSRDVRSRRPADTEDGMSSCPQPWFVVIKEHQDLKNGGQPVAGEDGQAADGSMQPTSWRQEPQLCGMGTEQGCWIPVSSDKGSCPQVMERSFHMPSYGTQTLEGGVEKPHSLLSANPLWQQRALDPPHQMELTQ
modifications: Pro-epidermal growth factor
notes: Non-encapsulated recombinant human epidermal growth factor; 75 μg of lyophilised rhEGF similar to commercialised Heberprot
cell proliferation compared with control groups [1]: greater cell proliferation | Re-epithelization score Day 8 [2]: 1.25±0.89 | Re-epithelization score Day 16 [2]: 2.71 ± 0.49 | Re-epithelization score Day 8 ([2]; listed as Free rhEGF): 1.25 ± 0.89 | Wound healing 4th day [3]: 8.42 ± 3.96% | Wound healing 7th day [3]: 19.94 ± 5.21% | Wound healing 11th day [3]: 44.80 ± 2.64% | Wound healing 14th day [3]: 61.83 ± 2.99% | Inflammation score Day 16 [4]: 2.75 ± 0.95 | Inflammation score Day 8 ([4]; listed as Free rhEGF): 1.75 ± 0.71 | Inflammation score Day 8 ([4]; listed as rhEGF): 2.13±0.64 | percentage of healed wounds ([5]; day 25): 40% | wound closure state ([5]; day 36): completely closed | extension of inflammatory tissue (Grade 2) ([6]; day 15, FIG. 10A): mainly showed a diffuse acute inflammation | wound maturity and healing quality (healing grade) ([6]; day 25, FIG. 10B): still showed chronic inflammation | rhEGF plasma concentrations [7]: 0.20 ± 0.01 ng/mL
